Where two headings read alike, the source gives them in different places.
Legend:
[1] = molecular target: the molecule itself; test: SEC
[2] = molecular target: the molecule itself; test: SEC-SAXS
[3] = molecular target: the molecule itself; test: SEC-SAXS; remark: listed apart in the source

B1: FLhArc, full-length human Arc (capsid / high-molecular-weight forms) (natural protein)
chain: MELDHRTSGGLHAYPGPRGGQVAKPNVILQIGKCRAEMLEHVRRTHRHLLAEVSKQVERELKGLHRSVGKLESNLDGYVPTSDSQRWKKSIKACLCRCQETIANLERWVKREMHVWREVFYRLERWADRLESTGGKYPVGSESARHTVSVGVGGPESYCHEADGYDYTVSPYAITPPPAAGELPGQEPAEAQQYQPWVPGEDGQPSPGVDTQIFEDPREFLSHLEEYLRQVGGSEEYWLSQIQNHMNGPAKKWWEFKQGSVKNWVEFKKEFLQYSEGTLSREAIQRELDLPQKQGEPLDQFLWRKRDLYQTLYVDADEEEIIQYVVGTLQPKLKRFLRHPLPKTLEQLIQRGMEVQDDLEQAAEPAGPHLPVEDEAETLTPAPNSESVASDRTQPE
- binding result [1]: binds

B2: MBP-2rNT, N-terminal domain of rat Arc (residues 24-137) with the poly-Ala mutation, His6-MBP fusion (domain or fragment)
chain: KPNVILQIGKCRAEMLEHVRRTHRHLLTEVSKQVERELKGLHRSVGKLENNLDGYVPTGDSQRWKKSIKACLCRCQETIANLERWVKREAAAAAAAFYRLERWADRLESMGGKY
- stoichiometry N [2]: 2

B3: FLrArc-7A, full-length rat Arc with a poly-Ala mutation of residues 113-119 (natural protein)
chain: MELDHMTTGGLHAYPAPRGGPAAKPNVILQIGKCRAEMLEHVRRTHRHLLTEVSKQVERELKGLHRSVGKLENNLDGYVPTGDSQRWKKSIKACLCRCQETIANLERWVKREAAAAAAAFYRLERWADRLESMGGKYPVGSEPARHTVSVGVGGPEPYCQEADGYDYTVSPYAITPPPAAGELPEQESVGAQQYQSWVPGEDGQPSPGVDTQIFEDPREFLSHLEEYLRQVGGSEEYWLSQIQNHMNGPAKKWWEFKQGSVKNWVEFKKEFLQYSEGTLSREAIQRELDLPQKQGEPLDQFLWRKRDLYQTLYVDAEEEEIIQYVVGTLQPKFKRFLRHPLPKTLEQLIQRGMEVQDGLEQAAEPSVTPLPTEDETEALTPALTSESVASDRTQPE
- stoichiometry N [3]: 2

— paper doi:10.1101/2021.12.16.472929 (bioRxiv, 2021)
